Results as given in the RNAGym collection of RNA variant scans (doi:10.1073/pnas.2313332121).

B1: TPR t1 (parent)
chain: GACCAAUCUGCCCUCAGAGCUCGAGAACAUCUUCGGAUGCAGAGGAGGCAGGCUUCGGUGGCGCGAUAGCGCCAACGUCCUCAACCUCCAAUGCAUCCCACCACAUGAUGAUGCCUGAAGAGCCUUGGUUUUUUG

Variants of: B1
Experiment: polymerase ribozyme fitness, log enrichment relative to wild type (log ratio); higher = more active; in vitro selection for triplet polymerase activity
In short: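 Streptavidin-bead capture of gel-excised extended constructs, followed by RT-PCR, closed a single triplicate in vitro selection round. That round began by annealing PCR-built, transcribed mutant libraries of each subunit of a heterodimeric triplet polymerase ribozyme with a biotinylated primer, the partner subunit and triplets, then incubating them frozen at −7 °C. After Illumina sequencing of inputs and outputs, genotypes needed ≥10 input reads and ≥1 read per output. Fitness is the base-2 logarithm of genotype enrichment over wild-type enrichment, using inverse-variance-weighted replicate averages.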

Variant | polymerase ribozyme fitness (log ratio)
GACCAAUCUGCCCUCAGAGCUCGAGAACAUCUUCGGAUGCAUAGGAGGCAGCCUACGGUGGCGCGAUAGCGCCAACGUCCUCAACCUCCAAUGCAUCCCACCACAUGAUGAUGCCUGAAGAGCCUUGGUUUUUUG [G42U G52C U55A] | -2.16
GACCAAUCUGCCCUCAGAGCUCGAGAACAUCUUCGGAUGCAUAGGAGGCAGUCUUCGGUGGCGCGAUAGCGCCAACGUCCUCAACCUCCAAUGCAUCCCACCACCUGAUGAUGCCUGAAGAGCCUUGGUUUUUUG [G42U G52U A105C] | -6.66
GACCAAUCUGCCCUCAGAGCUCGAGAACAUCUUCGGAUGCAUAGGAGGCAGGCUUCCGUGGCGCGAUAGCGCCAACGUCCUCAACCUCCAAUGCAUCCCACCAUAUGAUGAUGCCUGAAGAGCCGUGGUUUUUUG [G42U G57C C104U U125G] | -1.31
GACCAAUCUGCCCUCAGAGCUCGAGAACAUCUUCGGAUGCAUAGGAGGCAGGCUUCUGUGGCGCGAUAGCGCCAACGUCCUCAACCUCCAAUGCAUCCCACCACAUGAUGAUGCCUGAAGAGCCUUGGUUUUUUG [G42U G57U] | -1.5
GACCAAUCUGCCCUCAGAGCUCGAGAACAUCUUCGGAUGCAUAGGAGGCAGGCUUCGGUAGCGCGAUAGCGCCAACGUCCUCAACCUCCAAUGCAUCCCACCACAUGAUGAUGCCUGAAGAGCCUUGGUUUUUUG [G42U G60A] | -2.16
GACCAAUCUGCCCUCAGAGCUCGAGAACAUCUUCGGAUGCAUAGGAGGCAGGCUUCGGUGCCGCGAUAGCGCCAACGUCCUCAACCUCCAAUGCAUCCCACCACAUGAUGAUGCCUGAAGAGCCUUGGUUUUUUG [G42U G61C] | -3.59
GACCAAUCUGCCCUCAGAGCUCGAGAACAUCUUCGGAUGCAUAGGAGGCAGGCUUCGGUGUCGCGAUAGCGCCAACGUCCUCAACCUCCAAAGAAUCCCACCACAUGAUGAUGCCUGAAGAGCCUUGGUUUUUUG [G42U G61U U92A C94A] | -3.57
GACCAAUCUGCCCUCAGAGCUCGAGAACAUCUUCGGAUGCAUAGGAGGCAGGCUUCGGUGGCUCGAUAGCGCCAACGUCCUCAACCUCCAAUGCAUCCCACCACAUGAUGAUGCCUGAAGAGCCUUGGUUUUUUG [G42U G63U] | -3.48
GACCAAUCUGCCCUCAGAGCUCGAGAACAUCUUCGGAUGCAUAGGAGGCAGGCUUCGGUGGCGCGAUAGCGCCAACGUCCUCAACCUCCAAUGCAUCCCACCACAUGAUUAUGCCUGAAGAGCCUUGGUUUUUUG [G42U G110U] | -3.71
GACCAAUCUGCCCUCAGAGCUCGAGAACAUCUUCGGAUGCAUAGGAGGCAGGCUUCGGUGGCGCGAUAGCGCCAACGUCCUCAACCUCCAAUGCAUCCCACCACAUGAUGAUGCCUGAAUAGCCUUGGUUUUUUG [G42U G120U] | -1.31
GACCAAUCUGCCCUCAGAGCUCGAGAACAUCUUCGGAUGCAUAGGAGGCAGGCUGCGGUGGCGCGAUAGCGCCAACGUCCUCAACCUCCAAUGCAUCCCACCACAUGAUGAUGCCUAAAGAGCCUUGGUUUUUUG [G42U U55G G117A] | -3.02
GACCAAUCUGCCCUCAGAGCUCGAGAACAUCUUCGGAUGCAUAGGAGGCAGGCUUCGGAGGGGCGAUAGCGCCAACGUCCUCAACCUGCUAUGCAUCUCACCACAUGAUGAUGCCUGAAGAGCCUUGGUUUUUUG [G42U U59A C62G C88G A90U C98U] | -7.74
GACCAAUCUGCCCUCAGAGCUCGAGAACAUCUUCGGAUGCAUAGGAGGCAGGCUUCGGUGGCGCGAUAGCGCCAACGCCCUCAACCUACAAAGCAUCCCACCACAUGAUGAUGCCUGAAAAGCCUUGGUUUUUUG [G42U U78C C88A U92A G120A] | -1.83
GACCAAUCUGCCCUCAGAGCUCGAGAACAUCUUCGGAUGCAUAGGAGGCAGGCUUCGGUGGCGCGAUAGCGCCAACGCCCUCAACCUCCAAUGGAUCCCCCCACAUGAUGAUGCCUGAAGAGCCUUGGUUUUUUG [G42U U78C C94G A100C] | -4.78
GACCAAUCUGCCCUCAGAGCUCGAGAACAUCUUCGGAUGCAUAGGAGGCAGGCUUCGGUGGCGCGAUAGCGCCAACGUCCUCAACCUCCAAUGCAUCCCACCACAAGAUGAUGCCUGAACAGCCUUGGUUUUUUG [G42U U106A G120C] | -2.14
GACCAAUCUGCCCUCAGAGCUCGAGAACAUCUUCGGAUGCAGCGGCGGCAGGCUUCGGUGGUGCGAUAGCGCCAACGUCCUCAACCACCAAUGCAUCCCAUCACAUGAUGAUGCCUGAAGAGCCUUGGUUUUUUG [A43C A46C C62U U87A C101U] | -2.85
GACCAAUCUGCCCUCAGAGCUCGAGAACAUCUUCGGAUGCAGCGGUGGCAGGCUUCGGUGGCGCGAUAGCGCCAACGUCCUCAACCUCCAAUGCAUCCCACCACAUGAUGAUGCCUGAAGAGCCUUGGUUUUUUG [A43C A46U] | -2.91
GACCAAUCUGCCCUCAGAGCUCGAGAACAUCUUCGGAUGCAGCGGAGGCAGGUUUCGGUGGCGCGAUAGCGCCAACGUCCUCAACCUCCAAUGCAUCCCACCACAUGAUGAUGCCUGAAGAGCCUUGGUUUUUUG [A43C C53U] | -2.24
GACCAAUCUGCCCUCAGAGCUCGAGAACAUCUUCGGAUGCAGCGGAGGCAGGCUUUGGUGGCGCGAUAGCGCCAACGCCCUCAACCUCCAAUGCAUCCCACCACAUGAUGAUGCCUGAAGAGCCAUGGUUUUUUG [A43C C56U U78C U125A] | -3.15
GACCAAUCUGCCCUCAGAGCUCGAGAACAUCUUCGGAUGCAGCGGAGGCAGGCUUCGGUGGUGCGAUAGCGCCAACGUCCUCAGCCUCCAAUGCAUCCCACCACAUGAUGAUGCCUGAAGAGCCUUGGUUUUUUG [A43C C62U A84G] | -5.86
GACCAAUCUGCCCUCAGAGCUCGAGAACAUCUUCGGAUGCAGCGGAGGCAGGCUUCGGUGGCGUGAUAGCGCCAACGUCCUCAACCUCCAAUGCAUCCCACCACAUGAUGAUGCCUGAAGAGCCUUGGUUUUUUG [A43C C64U] | -1.64

Variant | polymerase ribozyme fitness (log ratio)
GACCAAUCUGCCCUCAGAGCUCGAGAACAUCUUCGGAUGCAGCGGAGGCAGGCUUCGGUGGCGCGAUAGUGCCAACGUCCUCAACCUCCAAUGCAUCCCACCACAUGAUGAUGCCUGAAGAGCCUUGGUUUUUUG [A43C C70U] | -3.69
GACCAAUCUGCCCUCAGAGCUCGAGAACAUCUUCGGAUGCAGCGGAGGCAGGCUUCGGUGGCGCGAUAGCGCCAACGUCCUAAACCUCCAAUGCAUCCCACCACAUGAUGAUGCCUGAAGAGCCUUGGUUUUUUG [A43C C82A] | -2.48
GACCAAUCUGCCCUCAGAGCUCGAGAACAUCUUCGGAUGCAGCGGAGGCAGGCUUCGGUGGCGCGAUAGCGCCAACGUCCUCAAACUCCAAUGCAUCCCAACACAUGAUGAUGCCUGAAGAGCCUUGGUUUUUUG [A43C C85A C101A] | -5.53
GACCAAUCUGCCCUCAGAGCUCGAGAACAUCUUCGGAUGCAGCGGAGGCAGGCUUCGGUGGCGCGAUAGCGCCAACGUCCUCAACCUCCAAUGCAUCCCAGCACAUGAUGAUGCCUGAAGUGCCUUGGUUUUUUG [A43C C101G A121U] | -2.62
GACCAAUCUGCCCUCAGAGCUCGAGAACAUCUUCGGAUGCAGCGGAGGCAGGCUUCGGUGGCGCGAUAGCGCCAACGUCCUCAACCUCCAAUGCAUCCCACCACAUGAUGAUGUCUGAAGAACCUUGGUUUUUUG [A43C C114U G122A] | -3.24
GACCAAUCUGCCCUCAGAGCUCGAGAACAUCUUCGGAUGCAGCUGAGGCAGGCUUCGGUGGCGCGAUAGCGCCAACGUCCUCAACCUCCAAUGCAUCCCACCACAUGAUGAUACCUGAAGAGCCUUGGUUUUUUG [A43C G44U G113A] | -3.01
GACCAAUCUGCCCUCAGAGCUCGAGAACAUCUUCGGAUGCAGCGUAGGCAGGCUUCGGUGGCGCGAUAGCGCCAACGUCCUCAACCUCCAAUGCAUCCCACCACAUGAUGAUGCCUGAAGAGCCUUGGUUUUUUG [A43C G45U] | -3.71
GACCAAUCUGCCCUCAGAGCUCGAGAACAUCUUCGGAUGCAGCGGAGCCAGGCUUCGGUGGCGCGAUAGCGGCAACGUCCUCAACCUCCAAUGCAUCCCACGACAUGAUGAUGCCUGAAGAGCCUUGGUUUUUUG [A43C G48C C72G C102G] | -7.62
GACCAAUCUGCCCUCAGAGCUCGAGAACAUCUUCGGAUGCAGCGGAGGCAUGCUUCGGUGGCGCGAUAGCGCCAACGUCCUGAACCUCCAAUGCAUCCCACCACAUGAUGAUGCCUGAAGUGCCUUGGUUUUUUG [A43C G51U C82G A121U] | -6.24
GACCAAUCUGCCCUCAGAGCUCGAGAACAUCUUCGGAUGCAGCGGAGGCAGGCUUCUGUGGCGCGAUAGCGCCAACUUCCUCAACCUCCAAUGCAUCCCACCACAUGAUGAUGCCUGAAGAGCCUUGGUUUUUUG [A43C G57U G77U] | -2.72
GACCAAUCUGCCCUCAGAGCUCGAGAACAUCUUCGGAUGCAGCGGAGGCAGGCUUCGGUGACGCGAUAGCGCCAACGUCCUCAAGCUCCAAUGCAUCCCACCACAUGAUGAUACUUGAAGAGCCUUGGUUUUUUG [A43C G61A C85G G113A C115U] | -5.36
GACCAAUCUGCCCUCAGAGCUCGAGAACAUCUUCGGAUGCAGCGGAGGCAGGCUUCGGUGACGCGAUAGCGCCAACGUCCUCAACCUCCAAUGCAUCCCAGCACAUGAUGAUGCCUGAAGAGCCUUGGUUUUUUG [A43C G61A C101G] | -4.23
GACCAAUCUGCCCUCAGAGCUCGAGAACAUCUUCGGAUGCAGCGGAGGCAGGCUUCGGUGCCGCGAUAGCGCCAACGUCCUCAACCUCCAAUGCAUCCCACCACAUGAUGAUGCCUGAAGAGCCUUGGUUUUUUG [A43C G61C] | -5.34
GACCAAUCUGCCCUCAGAGCUCGAGAACAUCUUCGGAUGCAGCGGAGGCAGGCUUCGGUGUCGCGAUAGCGCCAACGUCCUCAACCUCCAAUGCAUCCCACCACAUGAUGAUGCCUGAAGAGCCUUGGUUUUUUG [A43C G61U] | -2.24
GACCAAUCUGCCCUCAGAGCUCGAGAACAUCUUCGGAUGCAGCGGAGGCAGGCUUCGGUGUCGCGAUAGCGCCAACGUCCUCAACCUCCAAUGCAUCCCACCACAUGAUGAUGCCUGAAGAGGCUUGGUUUUUUG [A43C G61U C123G] | -1.3
GACCAAUCUGCCCUCAGAGCUCGAGAACAUCUUCGGAUGCAGCGGAGGCAGGCUUCGGUGGCACGAUAGCGCCAACGUCCUCAACCUCCAAUGCAUCCCACCACAUGAUGAUGCCUGAAGAGCCUUGGUUUUUUG [A43C G63A] | -4.15
GACCAAUCUGCCCUCAGAGCUCGAGAACAUCUUCGGAUGCAGCGGAGGCAGGCUUCGGUGGCGCGAUAGCUCCAACGUCCUCAACCUACAAUGCAUCCCACCACAUGAUGAUGCCUGAAGAGUCUUGGUUUUUUG [A43C G71U C88A C123U] | -3.41
GACCAAUCUGCCCUCAGAGCUCGAGAACAUCUUCGGAUGCAGCGGAGGCAGGCAUCGGUGGCGCGAUAGCGCCAACGUCCUCAACCUCCAAUGCAUCCCACCACAUGAUGAUGCCUGAAGAGCCUUGGUUUUUUG [A43C U54A] | -2.54
GACCAAUCUGCCCUCAGAGCUCGAGAACAUCUUCGGAUGCAGCGGAGGCAGGCUGCGGUGCCGCGAUAGCGCCAACGUUCUCAACCUCCAAUGCAUUCCACCACAUGAUGAUGCCGGAAGAGCCUUGGUUUUUUG [A43C U55G G61C C79U C97U U116G] | -5.31
GACCAAUCUGCCCUCAGAGCUCGAGAACAUCUUCGGAUGCAGCGGAGGCAGGCUUCGGCGGCGCGAUAGCGCCAACGUCAUCAACCUCCAAUGCAUCCCACCACAUGAUGAUGCCUGAAGAGCCUUGGUUUUUUG [A43C U59C C80A] | -6.52
GACCAAUCUGCCCUCAGAGCUCGAGAACAUCUUCGGAUGCAGCGGAGGCAGGCUUCGGUGGCGCGAUAGCGCCAACGUCCUCAACCUCCAAUGCAUCCCACCACAUGAUGAGGCCUGAAGAGCCUGGUUUUUUUG [A43C U112G U126G G128U] | -3.02
